Results on three molecules are retold here after article PMC3206214 (Molecular cell, 2011).

Common to all, as to experiment: far-Western, overlay or dot blot
The target of one experiment is MBP-BSU1 (Arabidopsis, UniProt Q9LR78 1-793).
The next experiment has as its target T1, MBP-BSU1-S764A (Arabidopsis, UniProt Q9LR78 1-793, S764A).
T1 sequence (looked up): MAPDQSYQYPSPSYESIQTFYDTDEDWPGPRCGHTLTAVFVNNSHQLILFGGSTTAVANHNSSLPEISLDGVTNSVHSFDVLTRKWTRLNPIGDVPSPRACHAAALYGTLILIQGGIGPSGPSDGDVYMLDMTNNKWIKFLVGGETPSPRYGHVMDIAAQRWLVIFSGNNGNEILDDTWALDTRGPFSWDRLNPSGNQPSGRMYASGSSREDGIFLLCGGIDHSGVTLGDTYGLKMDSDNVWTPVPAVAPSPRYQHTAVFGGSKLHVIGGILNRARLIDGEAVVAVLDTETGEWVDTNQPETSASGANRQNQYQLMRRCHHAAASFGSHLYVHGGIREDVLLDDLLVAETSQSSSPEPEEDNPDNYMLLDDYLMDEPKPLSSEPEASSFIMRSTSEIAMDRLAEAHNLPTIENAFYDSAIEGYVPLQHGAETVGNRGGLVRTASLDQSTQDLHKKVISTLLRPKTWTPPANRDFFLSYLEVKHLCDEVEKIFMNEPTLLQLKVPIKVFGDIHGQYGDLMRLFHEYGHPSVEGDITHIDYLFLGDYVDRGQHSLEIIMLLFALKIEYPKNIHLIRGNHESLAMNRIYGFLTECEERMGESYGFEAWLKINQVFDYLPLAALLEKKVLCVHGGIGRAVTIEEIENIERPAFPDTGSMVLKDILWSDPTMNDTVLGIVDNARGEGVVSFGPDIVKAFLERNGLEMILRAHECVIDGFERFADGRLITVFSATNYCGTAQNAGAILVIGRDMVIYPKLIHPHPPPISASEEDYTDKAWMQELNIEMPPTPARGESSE

The target of experiment [1] is MBP-BSU1 pre-incubated with GST-CDG1 and ATP (Arabidopsis, UniProt Q9LR78 1-793, phosphoserine at 764 (by CDG1)).

B1: GST-CDG1 (natural protein, Arabidopsis, UniProt Q9LSE1 1-432, looked up)
chain: MVSCLCFRPSRKTKLKDKSHKRSIRNQTSSSSAQPAGTAKEVDSSSSQTVVQDSSRYRCQIFSYRELAIATNSFRNESLIGRGGFGTVYKGRLSTGQNIAVKMLDQSGIQGDKEFLVEVLMLSLLHHRNLVHLFGYCAEGDQRLVVYEYMPLGSVEDHLYDLSEGQEALDWKTRMKIALGAAKGLAFLHNEAQPPVIYRDLKTSNILLDHDYKPKLSDFGLAKFGPSDDMSHVSTRVMGTHGYCAPEYANTGKLTLKSDIYSFGVVLLELISGRKALMPSSECVGNQSRYLVHWARPLFLNGRIRQIVDPRLARKGGFSNILLYRGIEVAFLCLAEEANARPSISQVVECLKYIIDHTIRKERRTRRRLLGGNKDGAGTSRSPDETMMRMLEEEEEYVTSEEAIERRRVIVDDARTWAGMNRRGATPPTPTP
B1: the binding result with MBP-BSU1 is recorded as “binds”.

B2: GST-CDG1 pre-incubated with GST-BRI1-K and ATP (natural protein, Arabidopsis, UniProt Q9LSE1 1-432, looked up)
chain: B1 chain
modifications: phosphoserine at 44, 47 and 234 (BRI1 phosphorylation sites, found by mass spectrometry on GST-CDG1-Y147G)
Consider B2, for which, in the experiment with MBP-BSU1, the binding result was “binds”.

B3: GST-BIN2 (natural protein, Arabidopsis, UniProt Q39011 1-380, looked up)
chain: MADDKEMPAAVVDGHDQVTGHIISTTIGGKNGEPKQTISYMAERVVGTGSFGIVFQAKCLETGETVAIKKVLQDRRYKNRELQLMRVMDHPNVVCLKHCFFSTTSKDELFLNLVMEYVPESLYRVLKHYSSANQRMPLVYVKLYMYQIFRGLAYIHNVAGVCHRDLKPQNLLVDPLTHQVKICDFGSAKQLVKGEANISYICSRFYRAPELIFGATEYTTSIDIWSAGCVLAELLLGQPLFPGENAVDQLVEIIKVLGTPTREEIRCMNPHYTDFRFPQIKAHPWHKIFHKRMPPEAIDFASRLLQYSPSLRCTALEACAHPFFDELREPNARLPNGRPFPPLFNFKQEVAGSSPELVNKLIPDHIKRQLGLSFLNQSGT
For B3, the binding result (with MBP-BSU1-S764A; in experiment [1]) was “binds” each time.
